Data from patent US20130136691A1 (BRACCO IMAGING S P A, published 2013).

T1: neuromedin-B preferring receptor (NMB-R) on C6 rodent glioblastoma cells (rodent, UniProt P24053 1-390, limits assumed)
T1 construct: whole, on cells; also called C6/NMB-R
T1 sequence (looked up): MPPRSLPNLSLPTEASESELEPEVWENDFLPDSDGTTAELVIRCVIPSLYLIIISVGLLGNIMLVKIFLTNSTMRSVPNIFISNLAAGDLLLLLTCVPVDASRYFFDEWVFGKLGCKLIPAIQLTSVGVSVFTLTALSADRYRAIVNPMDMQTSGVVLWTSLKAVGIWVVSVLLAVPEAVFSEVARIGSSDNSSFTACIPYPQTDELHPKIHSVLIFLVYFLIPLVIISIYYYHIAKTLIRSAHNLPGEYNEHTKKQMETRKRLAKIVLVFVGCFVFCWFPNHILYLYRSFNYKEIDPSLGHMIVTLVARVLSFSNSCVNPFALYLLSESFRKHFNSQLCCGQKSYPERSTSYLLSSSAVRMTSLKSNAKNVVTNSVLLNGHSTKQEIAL


Experiments:
[1] = molecular target: T2, gastrin releasing peptide receptor (GRP-R) (human, UniProt P30550 1-384); assay: 125I-BBN competition, PC3 cells
T2 construct: whole, on cells; also called GRP receptor; BB2
T2 sequence (P30550 whole entry): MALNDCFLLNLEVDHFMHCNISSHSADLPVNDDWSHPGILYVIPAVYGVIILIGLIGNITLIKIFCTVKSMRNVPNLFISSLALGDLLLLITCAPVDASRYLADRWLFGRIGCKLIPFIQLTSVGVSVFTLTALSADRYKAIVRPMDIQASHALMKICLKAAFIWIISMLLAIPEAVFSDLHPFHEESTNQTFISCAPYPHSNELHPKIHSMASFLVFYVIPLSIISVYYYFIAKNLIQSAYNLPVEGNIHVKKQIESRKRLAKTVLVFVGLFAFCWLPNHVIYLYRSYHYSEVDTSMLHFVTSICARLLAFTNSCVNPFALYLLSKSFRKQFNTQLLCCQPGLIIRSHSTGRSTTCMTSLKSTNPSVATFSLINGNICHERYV

[2] = molecular target: T1, neuromedin-B preferring receptor …; assay: 125I-NMB competition, C6 cells

Row | IC50 [1] [nM] | IC50 [2] [nM] | Binder
1 | 2 |  | QWAVGHLM (N-term: N,N-dimethylglycine-Ser-Cys(Acm)-Gly-Ser-Lys; C-term amide) [N,N-dimethylglycine-Ser-Cys(Acm)-Gly-SK-QWAVGHLM-NH2]
2 |  | 2 | QWAVGHLM (N-term: N,N-dimethylglycine-Ser-Cys(Acm)-Gly-Ser-Arg; C-term amide) [N,N-dimethylglycine-Ser-Cys(Acm)-Gly-SR-QWAVGHLM-NH2]
3 |  | 60 | QWAVGHLM (N-term: N,N-dimethylglycine-Ser-Cys(Acm)-Gly-Lys-Glu; C-term amide) [N,N-dimethylglycine-Ser-Cys(Acm)-Gly-KE-QWAVGHLM-NH2]
